Measured values taken from patent publication CN117866092A (BEIJING KENUO XINCHENG TECH CO LTD, dated 2024).

Key:
[1] = target: T1, 细胞表面人CD73蛋白 (human CD73 on the cell surface) (human, UniProt P21589 27-549); test: flow cytometry on BXPC-3 cells, FITC anti-human IgG
T1 construct: whole, on cells; Endogenous CD73 on human tumour cell lines; also called 细胞表面CD73; CD73 on BXPC-3, SKOV-3, A375, MDA-MB-231 and A431 cells
T1 sequence (looked up): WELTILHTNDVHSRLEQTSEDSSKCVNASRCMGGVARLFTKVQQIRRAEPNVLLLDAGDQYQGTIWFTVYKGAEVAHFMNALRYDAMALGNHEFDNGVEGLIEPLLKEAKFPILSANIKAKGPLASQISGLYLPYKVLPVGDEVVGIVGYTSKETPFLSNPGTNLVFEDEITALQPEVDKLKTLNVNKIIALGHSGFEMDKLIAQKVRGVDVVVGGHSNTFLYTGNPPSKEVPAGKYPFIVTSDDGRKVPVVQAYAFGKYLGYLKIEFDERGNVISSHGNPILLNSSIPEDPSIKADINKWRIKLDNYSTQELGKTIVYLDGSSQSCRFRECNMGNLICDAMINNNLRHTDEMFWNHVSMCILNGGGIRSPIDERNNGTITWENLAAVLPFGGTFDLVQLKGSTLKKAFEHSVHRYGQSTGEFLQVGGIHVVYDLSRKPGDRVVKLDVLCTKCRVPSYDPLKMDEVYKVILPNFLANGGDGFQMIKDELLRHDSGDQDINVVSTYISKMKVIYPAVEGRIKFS

[2] = target: T2, 人CD73-his重组蛋白(序列号:NM_002526.3，27-547aa) (human, UniProt P21589 27-547); test: BLI (Octet QKe), antibody captured on AHC sensor, 60 nM CD73-his as analyte, 1:1 fit
T2 construct: range 27-547; Transiently expressed in eukaryotic cells; also called rhCD73-his; 重组人CD73-his; not shown: his tag
T2 sequence (looked up): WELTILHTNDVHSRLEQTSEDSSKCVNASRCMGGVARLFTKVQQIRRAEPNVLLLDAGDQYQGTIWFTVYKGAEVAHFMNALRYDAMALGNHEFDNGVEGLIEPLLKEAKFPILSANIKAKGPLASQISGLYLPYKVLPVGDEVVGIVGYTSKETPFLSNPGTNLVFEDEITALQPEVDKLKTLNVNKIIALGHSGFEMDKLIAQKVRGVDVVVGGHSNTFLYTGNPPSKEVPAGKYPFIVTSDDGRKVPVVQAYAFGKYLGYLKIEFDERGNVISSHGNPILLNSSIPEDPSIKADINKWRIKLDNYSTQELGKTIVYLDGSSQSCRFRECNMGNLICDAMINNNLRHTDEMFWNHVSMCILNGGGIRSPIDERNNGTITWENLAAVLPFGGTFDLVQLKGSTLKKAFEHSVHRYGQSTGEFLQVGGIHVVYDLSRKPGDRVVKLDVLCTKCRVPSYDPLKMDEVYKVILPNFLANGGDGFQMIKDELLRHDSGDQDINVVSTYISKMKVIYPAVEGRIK

EC50 [1]: 0.242 nM | Kd [2]: 0.635 nM | koff [2]: 0.000105 s⁻¹ | kon [2]: 165000 M⁻¹ s⁻¹
B1: MEDI9447 (antibody, V domains shown)
VH: EVQLLESGGGLVQPGGSLRLSCAASGFTFSSYAYSWVRQAPGKGLEWVSAISGSGGRTYYADSVKGRFTISRDNSKNTLYLQMNSLRAEDTAVYYCARLGYGRVDEWGRGTLVTVSS
VL: QSVLTQPPSASGTPGQRVTISCSGSLSNIGRNPVNWYQQLPGTAPKLLIYLDNLRLSGVPDRFSGSKSGTSASLAISGLQSEDEADYYCATWDDSHPGWTFGGGTKLTVLG
